# Measurements from patent US20260285972 (published 2026).
# Residue numbers refer to the chain shown, from its start.
# T1: recombinant human GPRC5D-Flag-His (human, UniProt Q9NZD1)
# T1 chain: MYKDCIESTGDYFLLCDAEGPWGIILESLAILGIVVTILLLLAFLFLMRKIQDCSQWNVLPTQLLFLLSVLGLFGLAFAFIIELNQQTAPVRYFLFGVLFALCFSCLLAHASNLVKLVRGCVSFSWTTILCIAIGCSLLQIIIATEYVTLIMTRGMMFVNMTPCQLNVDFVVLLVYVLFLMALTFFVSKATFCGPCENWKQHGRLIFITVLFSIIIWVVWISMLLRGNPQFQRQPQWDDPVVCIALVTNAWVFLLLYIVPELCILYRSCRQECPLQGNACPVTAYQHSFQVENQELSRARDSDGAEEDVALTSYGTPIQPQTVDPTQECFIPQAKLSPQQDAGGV
# B1: 22Mono5UQY (antibody, V domains shown)
# VH: QVQLQESGPGLVKPSETLSLTCTASGYPFTNYWMHWVRQPPGKGLEWIGEINPSNGRTNYNEKFKSRATLSLDKSKNQASLNLDSVSAADTAIYYCARGFAYWGKGSTVTVSS
# VL: AIQLTQSPSSLSASVGDRVTITCSASSSVSFMHWYQQKPGKAPKRWIYDTTKLASGVPSRFSGSGSGTDYTFTISSLQPEDIATYYCQQWNSHPLTFGPGTKVDIK
# modifications: Flag-His tag, ACRO GPD-H52D3
# B2: 22Mono3L7F (antibody, V domains shown)
# VH: EVTLKESGPVLVKPTETLTLTCTASGYPFTNYWMHWVRQPPGKALEWIGEINPSNGRTNYNEKFKSRATLSLDKSKSQAVLTMTNMDPVDTATYYCARGFAYWGQGTLVTVSS
# VL: EIVLTQSPATLSLSPGERATLSCSASSSVSFMHWYQQKPGQAPRRWIYDTTKLASGIPARFSGSGSGTDYTLTISSLEPEDFAVYYCQQWNSHPLTFGQGTKLEIK
# modifications: Flag-His tag, ACRO GPD-H52D3
# B3: 22Mono5JO4 (antibody, V domains shown)
# VH: QVQLVQSGAEVKKPGSSVKVSCRASGYPFTNYWMHWVRQAPGQGLEWIGEINPSNGRTNYNEKFKSRATLTLDKLTSTAYMELSSLTSEDTALYYCARGFAYWGQGTLVTVSS
# VL: B2 VL with A9G, A59D, S76R, K102T, L103V
# modifications: Flag-His tag, ACRO GPD-H52D3
# B4: 22Mono4DN4 (antibody, V domains shown)
# VH: ELVQSGAEVKKPGSSVKVSCKASGYPFTNYWMHWVRQAPGQGLEWIGEINPSNGRTNYNEKFKSRATLTLDKSTSTAYMELSSLRSEDTAVYYCARGFAYWGQGTLVTVSS
# VL: B2 VL with I57V, L103V
# modifications: Flag-His tag, ACRO GPD-H52D3
# Target: T1, recombinant human GPRC5D-Flag-His
# Assay: BLI
row,Kd [nM],Binder
1,5.67,B1
2,25.6,B2
3,0.787,B3
4,16.9,B4
